{
  "source": "paper PMC6200986",
  "system": "YlxR (Bacillus subtilis 168)",
  "test": "EMSA",
  "details": "10 mM Tris-HCl pH 8.0, 100 mM KCl, 10 mM MgCl2, 1 mM DTT, 10% glycerol, 12 ul; 1% agarose gel in Tris-acetate-EDTA, loaded immediately after protein addition …",
  "data": [
    {"substance": "pET28b(+) supercoiled", "values": [
      {"measurement": "Kd", "result": 100, "unit": "nM"}
    ]}
  ]
}
